From paper PMC7107572

How the values were obtained:
[1] = pyruvate kinase activity, HeLa lysate; conditions: glycan gained; control: vector and OGTcd
[2] = basal ECAR, Seahorse XF24; conditions: glycan lost; control: PKM2wt cells
[3] = exogenous PKM2 protein level in xenograft tumors; conditions: glycan lost; control: PKM2wt tumors
[4] = residual medium glucose normalised to cell number; conditions: glycan lost; control: PKM2wt cells
[5] = IP of HN-PKM2, anti-acetyl-lysine blot, 25 mM glucose; conditions: glycan lost; control: PKM2wt
[6] = LDH-coupled pyruvate kinase assay, PEP titration, HeLa; conditions: glycan lost; control: PKM2wt
[7] = sucrose density gradient ultracentrifugation, anti-Flag blot; conditions: glycan lost; control: PKM2wt

Substance	enzymatic_activity [1]	other: glycolytic flux [2]	expression_or_secretion [3]	other: cellular glucose consumption [4]	other: OGA-induced lysine acetylation [5]	enzymatic_activity [6]	oligomerisation [7]
pyruvate kinase M2 (PKM2): OGTwt overexpression	decreases						
pyruvate kinase M2 (PKM2): S362A		decreases	no change	decreases	no change	increases	increases
pyruvate kinase M2 (PKM2): T365A		decreases	no change	decreases		increases	increases
